Reference: patent US20130142802A1 (published 2013)

B3: FGFR2 IIIb-Fc (Fc fusion)
chain: TLEPEDAISSGDDEDDTDGAEDFVSENSNNKRAPYWTNTEKMEKRLHAVPAANTVKFRCPAGGNPMPTMRWLKNGKEFKQEHRIGGYKVRNQHWSLIMESVVPSDKGNYTCVVENEYGSINHTYHLDVVERSPHRPVLQAGLPANASTVVGGDVEFVCKVYSDAQPHIQWIKHVEKNGSKYGPDGLPYLKVLKHSGINSSNAEVLALFNVTEADAGEYICKVSNYIGQANQSAWLTVLPKQQAPGREKEITASPDYLEDKTHTCPPCPAPELLGGPSVFLFPPKPKDTLYITREPEVTCVVVDVSHEDPEVKFNWYVDGVEVHNAKTKPREEQYNSTYRVVSVLTVLHQDWLNGKEYKCKVSNKALPAPIEKTISKAKGQPREPQVYTLPPSREEMTKNQVSLTCLVKGFYPSDIAVEWESNGQPENNYKTTPPVLDSDGSFFLYSKLTVDKSRWQQGNVFSCSVMHEALKFHYTQKSLSLSPGK
notes: also called FGFR2IIIb beta-ECD; FGFR2IIIb-hFc

Assays:
[1] = target: T1, Flag-FGFR2-IIIc expressed on CHO cells (human, UniProt P21802 22-821); test: cell-based binding assay (cell ELISA) on stable CHO-FGFR2-IIIc cells
T1 construct: whole, on cells; also called CHO-FGFR2-IIIc; CHO-IIIc; not shown: Flag-tag at the N-terminus

[2] = target: T2, FGFR2-IIIc (receptor protein of FIG. 52C) (UniProt P21802 152-377, limits assumed); test: ELISA with biotinylated Atto-HuMab-01; the receptor concentration is varied (x axis: FGFR receptor concentration, nM)
[3] = target: T2, FGFR2-IIIc (receptor protein of FIG. …); test: binding curves of biotinylated antibody on FGF receptors (FIG. 52C), format not told; biotinylated antibody, FIG. 52C receptor panel
[4] = target: T1, Flag-FGFR2-IIIc expressed on CHO cells; test: cell-based binding assay on stable CHO-FGFR2-IIIc cells, method of Beatty et al.
[5] = target: T3, Flag-FGFR2-IIIb expressed on CHO cells (human, UniProt P21802 22-821); test: immunocytochemistry on CHO cells
T3 construct: whole, on cells; also called CHO-FGFR2-IIIb; FGFR2-IIIb-expressing CHO cells; not shown: Flag-tag at the N-terminus
T3 chain: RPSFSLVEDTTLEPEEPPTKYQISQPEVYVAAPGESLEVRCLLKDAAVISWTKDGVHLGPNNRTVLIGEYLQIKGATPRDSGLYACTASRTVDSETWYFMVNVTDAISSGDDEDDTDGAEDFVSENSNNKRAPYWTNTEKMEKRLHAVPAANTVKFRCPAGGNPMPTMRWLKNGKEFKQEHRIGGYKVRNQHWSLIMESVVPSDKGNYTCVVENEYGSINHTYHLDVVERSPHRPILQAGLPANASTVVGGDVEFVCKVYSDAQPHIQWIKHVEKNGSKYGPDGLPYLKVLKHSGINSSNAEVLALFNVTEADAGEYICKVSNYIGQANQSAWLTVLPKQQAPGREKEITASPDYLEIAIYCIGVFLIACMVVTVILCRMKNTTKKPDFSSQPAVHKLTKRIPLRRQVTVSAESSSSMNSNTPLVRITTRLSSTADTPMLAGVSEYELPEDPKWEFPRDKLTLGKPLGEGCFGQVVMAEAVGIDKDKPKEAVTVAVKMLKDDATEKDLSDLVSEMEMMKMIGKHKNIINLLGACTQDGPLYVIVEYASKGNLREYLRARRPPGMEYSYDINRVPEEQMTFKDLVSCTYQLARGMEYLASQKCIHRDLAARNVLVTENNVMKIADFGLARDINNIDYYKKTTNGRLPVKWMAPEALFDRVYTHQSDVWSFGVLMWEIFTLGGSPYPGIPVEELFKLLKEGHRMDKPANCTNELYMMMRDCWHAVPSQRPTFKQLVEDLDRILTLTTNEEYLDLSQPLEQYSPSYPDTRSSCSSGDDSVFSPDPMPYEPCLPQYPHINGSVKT

[6] = target: T3, Flag-FGFR2-IIIb expressed on CHO cells; test: immunocytochemical staining of CHO cells transiently expressing FGFR2IIIb
[7] = target: human ovalbumin (OA) (human); test: phage ELISA on coated protein
[8] = target: T4, human ferritin (Fer) (human, UniProt P02794 2-183; P02792 2-175, Natural ferritin is a 24-subunit shell of H and L chains in a tissue-dependent ratio, with an iron core. The letters carry one copy of each subunit.); test: phage ELISA on coated protein
T4 construct: also called Feritin

[9] = target: T5, 128AA-mFc (128-amino acid loop-3 fragment of FGFR2IIIc fused to mouse Fc) (human); test: phage ELISA on coated protein
T5 chain: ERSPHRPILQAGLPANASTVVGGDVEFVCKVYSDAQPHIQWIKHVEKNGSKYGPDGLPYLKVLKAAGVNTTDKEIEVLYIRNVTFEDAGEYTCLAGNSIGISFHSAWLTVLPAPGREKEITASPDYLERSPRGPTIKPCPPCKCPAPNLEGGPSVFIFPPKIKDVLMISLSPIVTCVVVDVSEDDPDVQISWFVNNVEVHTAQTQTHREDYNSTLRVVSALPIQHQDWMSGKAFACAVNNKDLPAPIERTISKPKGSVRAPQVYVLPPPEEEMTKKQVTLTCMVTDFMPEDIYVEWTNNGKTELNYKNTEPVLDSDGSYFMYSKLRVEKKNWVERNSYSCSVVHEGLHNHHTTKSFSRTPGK

[10] = target: B3; test: phage ELISA, plate coated with FGFR2 IIIb Fc fusion (whole extracellular domain)
[11] = target: T4, human ferritin (Fer); test: phage ELISA on coated protein; remark: listed apart in the source
[12] = target: T6, FGF8b (UniProt P55075-3 23-215); test: ligand binding ELISA (data not shown)
T6 construct: Coated on ELISA plates; also called ligand protein FGF8b
T6 sequence (looked up): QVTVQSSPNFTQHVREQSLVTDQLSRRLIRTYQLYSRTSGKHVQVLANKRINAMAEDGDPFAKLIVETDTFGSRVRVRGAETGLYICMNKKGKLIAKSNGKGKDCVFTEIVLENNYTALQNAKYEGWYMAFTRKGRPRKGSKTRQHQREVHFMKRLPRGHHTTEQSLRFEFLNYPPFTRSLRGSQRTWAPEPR

B1: Atto-HuMab-01 (full-length human IgG1) (antibody, V domains shown)
VH: QVQLVQSGAEVKKPGSSVKVSCKASGGTFSSYAISWVRQAPGQGLEWMGRIIPIFGTANYAQKFQGRVTITADESTSTAYMELNSLRSEDTAVYYCARDRWDWNDAFDIWGQGTMVTVSS
VL: not shown
notes: also called Atto-01
For B1, the “EC50 (read off the curve)” value [1] was about 0.4 nM, the “EC50 (read off the curve)” value [2] was about 0.2 nM and the Kd [3] was about 0.2 nM. For the same binder, the Kd [4] was 0.7 nM and the binding result [5] was “no binding (tested: 1ug/ml)”.

B2: human scFv clone 8, phage-displayed (scFv)
scFv: QSVLTQPPSVSAAPGQKVTISCSGSSSNIGNNYVSWYQQLPGTAPKLLIYDNNKRPSGIPDRFSGSKSGTSATLAISGLQSEDEADYYCAAWDDSLNGVVFGGGTKLTVLGSGGSTITSYNVYYTKLSSSGTQVQLVQSGAEVKKPGSSVKVSCKASGGTFSSYAISWVRQAPGQGLEWMGRIIPIFGTANYAQKFQGRVTITADESTSTAYMELNSLRSEDTAVYYCARDRWDWNDAFDIWGQGTMVTVSS
notes: also called scFv-8; Atto-HuMab-08
With B2 the binding result [6] was “no binding”, the “OD (450 nm)” value [7] was 0.02 and the “OD (450 nm)” value [8] was 0.011. The “OD (450 nm)” value [9] was 0.215, the binding result [10] was “no binding” and the binding result [11] was “no binding”.

B3: no binding [12].
